According to the supplement of paper PMC9732359:
± gives the uncertainty stated by the source.

Test: protein stability index of a GFP-peptide fusion (yeast GPS) (PSI 1-4); higher = more stable; sorted into four equal gates, so the index is relative within each strain
Outline: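 Tiled 17-residue peptides from yeast proteins were fused downstream of GFP on a plasmid that also expresses Cherry, and the pooled library was carried in yeast. Mid-log cultures grown in leucine-free medium were sorted into four equal gates by GFP/Cherry fluorescence ratio. Plasmids from each gate were PCR-amplified and Illumina-sequenced, and reads were assigned to strains by barcodes. Each peptide's protein stability index is the sum, over gates, of the gate's read frequency multiplied by its gate number.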

Row | Sequence | protein stability index (doa10∆) | protein stability index (pdr5∆) | protein stability index (san1∆) | protein stability index (ubr1∆)
1 | AIANTLLYLRLKNIYVS [PRP8] | 1.38 ± 0.048 | 1.53 ± 0.05 | 1.38 ± 0.084 | 1.18 ± 0.045
2 | AICRYANVIKALAFCEI [RRP4] | 1.42 ± 0.069 | 2.04 ± 0.099 | 1.66 ± 0.18 | 2.22 ± 0.072
3 | AIDYEPEYEKAMQYVCG [SMC1] |  |  | 2.8 ± 0.13 | 2.44 ± 0.11
4 | AIIGLKSGTSHDAIFSI [SNF12] | 2.56 ± 0.11 | 2.65 ± 0.082 | 2.5 ± 0.069 | 2.96 ± 0.17
5 | AINIMNRSNDALIKFME [FAS2] | 3.19 ± 0.15 | 3.45 ± 0.15 | 3.26 ± 0.093 | 3.38 ± 0.15
6 | AIPLQQVLSQSADPSLL [SWI1] | 2.86 ± 0.22 | 2.5 ± 0.13 |  | 3.06 ± 0.17
7 | AIPSRMTVAHLIECLLS [RPB2] | 1.39 ± 0.098 | 1.85 ± 0.094 | 1.39 ± 0.25 | 1.67 ± 0.09
8 | AIRRDARYNWICDPVHK [RPL15A] | 2.71 ± 0.1 | 3.37 ± 0.12 | 3.25 ± 0.11 | 3.18 ± 0.076
9 | AIRRDARYNWICNPVHK [RPL15B] | 3.03 ± 0.16 | 3.38 ± 0.13 | 3.37 ± 0.13 | 3.21 ± 0.081
10 | AISGKKTTYYYYNEEGI [RPC82] | 2.61 ± 0.067 | 2.97 ± 0.14 | 2.8 ± 0.056 | 3.06 ± 0.076
11 | AISTDKINPFGFEQVKI [RRI2] | 2.75 ± 0.056 | 2.94 ± 0.05 | 2.72 ± 0.061 | 2.86 ± 0.061
12 | AITISNSIDINYKGLPK [SMC1] | 2.48 ± 0.063 | 2.83 ± 0.054 | 2.54 ± 0.073 | 2.98 ± 0.039
13 | AKGCEVVVSGKLRAARA [RPS3] | 3.15 ± 0.14 | 3.24 ± 0.22 | 3.42 ± 0.14 | 3.25 ± 0.28
14 | AKGLVAYHQKYVDEQSK [RPS16A] | 2.03 ± 0.085 | 2.12 ± 0.056 | 2.52 ± 0.089 | 1.11 ± 0.034
15 | AKHAVSEGTRAVTKYSS [HTB1] | 3 ± 0.08 | 3.21 ± 0.11 | 3.41 ± 0.075 | 3.12 ± 0.09
16 | AKIYPGRGTLFVRGDSK [RPL24A] | 1.1 ± 0.075 | 1.77 ± 0.12 | 1.97 ± 0.15 | 2.04 ± 0.085
17 | AKKTSTSTDGKKRSKAR [HTB1] | 3.2 ± 0.25 | 3.12 ± 0.17 |  | 
18 | AKNEDDPAHSLNYTVIN [AAR2] | 2.93 ± 0.2 | 3.05 ± 0.18 | 2.68 ± 0.11 | 2.43 ± 0.18
19 | AKQALDLYHFALNYENE [SNF2] | 2.47 ± 0.098 | 2.83 ± 0.084 | 2.69 ± 0.095 | 1.83 ± 0.1
20 | AKSISTSAKEPSENDVF [RPO31] | 2.99 ± 0.072 | 3.06 ± 0.069 | 2.56 ± 0.083 | 3.2 ± 0.09
21 | AKSMAFLKEVLSDLSSP [YML103C/NUP188] | 2.97 ± 0.079 | 3.1 ± 0.079 | 2.79 ± 0.11 | 2.95 ± 0.065
22 | AKSTVETFISSMTATAD [RIP1] | 1.89 ± 0.073 | 2.13 ± 0.077 | 2.93 ± 0.061 | 1.48 ± 0.05
23 | AKVNRPAKIVNFEKPKN [RPN5] | 2.93 ± 0.069 | 3.12 ± 0.069 | 2.89 ± 0.056 | 3.12 ± 0.054
24 | AKWAPTLRTISFKGSPN [SNF2] | 3.02 ± 0.16 | 3.11 ± 0.27 | 2.77 ± 0.15 | 2.51 ± 0.14
25 | ALALYVDAYRRLENKLS [SRP68] | 1.78 ± 0.2 | 1.42 ± 0.11 |  | 1.52 ± 0.1
26 | ALASIQTFNFDSFENYF [RPN12] | 2.65 ± 0.048 | 2.77 ± 0.069 | 2.51 ± 0.096 | 2.82 ± 0.054

Row | Sequence | protein stability index (doa10∆) | protein stability index (pdr5∆) | protein stability index (san1∆) | protein stability index (ubr1∆)
27 | ALDTVTNVLNFIKLQKI [FAS1] | 2.76 ± 0.069 | 2.04 ± 0.067 | 2.14 ± 0.13 | 2.15 ± 0.055
28 | ALEEAKLSDNISICMIL [YDL116W/NUP84] | 2.87 ± 0.076 | 3.02 ± 0.073 | 3.04 ± 0.06 | 3.21 ± 0.043
29 | ALEFVSLLLSSVKESTG [SRB4] | 1.26 ± 0.046 | 1.61 ± 0.043 | 1.4 ± 0.11 | 1.24 ± 0.048
30 | ALEYIGAKVKTMRRQKL [RET1] | 2.1 ± 0.069 | 2.48 ± 0.097 | 2.22 ± 0.089 | 2.19 ± 0.066
31 | ALIDAGISMFDYISGIS [SKI6] | 1.48 ± 0.064 | 1.5 ± 0.046 | 2.3 ± 0.099 | 1.68 ± 0.037
32 | ALIDTEFANFELKDICS [YML103C/NUP188] | 2.12 ± 0.063 | 2.49 ± 0.06 | 2.65 ± 0.063 | 2.16 ± 0.037
33 | ALIENWAADSVSSRVRG [FAS1] | 3.45 ± 0.12 | 3.1 ± 0.14 | 2.84 ± 0.082 | 3.34 ± 0.075
34 | ALPNIENDIIKLSDSKT [BRR2] | 2.79 ± 0.054 | 3.16 ± 0.055 | 2.82 ± 0.044 | 3.23 ± 0.054
35 | ALQNLSQLPITPMTRIS [YGL172W/NUP49] | 2.31 ± 0.13 | 1.95 ± 0.12 | 1.66 ± 0.21 | 1.92 ± 0.065
36 | ALRGMFKDRFKDEPVQN [FAS2] | 3.56 ± 0.087 | 3.43 ± 0.085 | 3.35 ± 0.069 | 3.58 ± 0.11
37 | ALSLHREILCYSKDAKE [FAS2] | 1.78 ± 0.028 | 1.76 ± 0.027 | 1.85 ± 0.044 | 1.82 ± 0.021
38 | ALSQSSLLKTKLKQQSS [RRI1] | 2.13 ± 0.037 | 2.51 ± 0.035 | 2.22 ± 0.048 | 2.26 ± 0.035
39 | ALTKFEASQVTEKQRKK [RPL35A] | 3.2 ± 0.27 | 2.57 ± 0.1 | 3.1 ± 0.064 | 3.17 ± 0.061
40 | ALTRGEALLVVLVSSVT [RPS12] |  | 3.63 ± 0.26 | 3.52 ± 0.24 | 3.29 ± 0.26
41 | ALYIAMMTRRVVMAMYN [RET1] | 3.11 ± 0.28 |  |  | 
42 | AMFFGNYGSSLQWHAMI [AAR2] | 2.41 ± 0.093 | 1.8 ± 0.085 | 1.44 ± 0.12 | 2.15 ± 0.071
43 | AMICEAKGLIENIFEGE [YJR042W/NUP85] | 2.94 ± 0.13 | 2.93 ± 0.086 | 2.5 ± 0.1 | 2.81 ± 0.064
44 | AMLINLILRDFLNNGEV [RPN3] | 2.67 ± 0.086 | 2.56 ± 0.076 | 2.59 ± 0.066 | 2.84 ± 0.076
45 | AMSLYHSPFPFNRTKGK [PRP8] | 2.11 ± 0.04 | 2.08 ± 0.047 | 1.65 ± 0.07 | 1.98 ± 0.03
46 | ANATAAESDVAKQLAAL [RPL16A] | 3 ± 0.043 | 2.84 ± 0.061 | 3.19 ± 0.046 | 3.23 ± 0.05
47 | ANGIINVKEITEKLKIS [SMC3] | 2.81 ± 0.12 | 2.64 ± 0.099 | 2.75 ± 0.14 | 2.9 ± 0.06
48 | ANLEDIIFEIEKPLVVP [RRP6] | 2 ± 0.085 | 2.79 ± 0.094 | 2.62 ± 0.08 | 2.03 ± 0.11
49 | ANLPANSSTSPAPSIPS [YLR335W/NUP2] | 2.94 ± 0.037 | 3.1 ± 0.037 | 2.95 ± 0.03 | 2.856 ± 0.027
50 | ANLPWLGKAQNWAKFTA [RPN2] | 3.34 ± 0.085 | 3.39 ± 0.091 | 3.11 ± 0.087 | 3.52 ± 0.082
51 | ANMATVPSTTNVNMTVN [MED6] | 2.92 ± 0.099 | 3.08 ± 0.084 |  | 2.93 ± 0.052
52 | ANNIVNIVSDAGANDTS [GRR1] | 3.2 ± 0.12 | 3.14 ± 0.074 | 3.64 ± 0.1 | 3.13 ± 0.094
